Where a chain is given by its changes, count along the chain named. Names may count otherwise. Values belong to the binder of their own block, whether it stands above or below them.
Assays:
[1] = biological target: T1, human complement component C3 (human, UniProt P01024 23-667; P01024 672-1663); assay: SPR (Biacore)
T1 construct: Purified human C3 (Complement Technologies); also called human C3

[2] = biological target: T2, cynomolgus monkey complement component C3 (cynomolgus monkey, UniProt P01024 24-1663 (human entry)); assay: SPR (Biacore), antibody captured by anti-Fc on CM5 chip, C3 injected 0.62-40 nM, 37 C
T2 construct: In the hemolysis assays cyno serum was the source of C3; also called cyno C3

[3] = biological target: T1, human complement component C3; assay: as above
[4] = biological target: T2, cynomolgus monkey complement component …; assay: SPR (Biacore), antibody captured, C3 injected, 37 C
[5] = biological target: T1, human complement component C3; assay: as above
[6] = biological target: T1, human complement component C3; assay: cell-based or functional assay
[7] = biological target: T1, human complement component C3; assay: SPR (Biacore), compared with Hz38G10

T2 sequence (P01024 other isoform, or with tags, fused parts or gaps): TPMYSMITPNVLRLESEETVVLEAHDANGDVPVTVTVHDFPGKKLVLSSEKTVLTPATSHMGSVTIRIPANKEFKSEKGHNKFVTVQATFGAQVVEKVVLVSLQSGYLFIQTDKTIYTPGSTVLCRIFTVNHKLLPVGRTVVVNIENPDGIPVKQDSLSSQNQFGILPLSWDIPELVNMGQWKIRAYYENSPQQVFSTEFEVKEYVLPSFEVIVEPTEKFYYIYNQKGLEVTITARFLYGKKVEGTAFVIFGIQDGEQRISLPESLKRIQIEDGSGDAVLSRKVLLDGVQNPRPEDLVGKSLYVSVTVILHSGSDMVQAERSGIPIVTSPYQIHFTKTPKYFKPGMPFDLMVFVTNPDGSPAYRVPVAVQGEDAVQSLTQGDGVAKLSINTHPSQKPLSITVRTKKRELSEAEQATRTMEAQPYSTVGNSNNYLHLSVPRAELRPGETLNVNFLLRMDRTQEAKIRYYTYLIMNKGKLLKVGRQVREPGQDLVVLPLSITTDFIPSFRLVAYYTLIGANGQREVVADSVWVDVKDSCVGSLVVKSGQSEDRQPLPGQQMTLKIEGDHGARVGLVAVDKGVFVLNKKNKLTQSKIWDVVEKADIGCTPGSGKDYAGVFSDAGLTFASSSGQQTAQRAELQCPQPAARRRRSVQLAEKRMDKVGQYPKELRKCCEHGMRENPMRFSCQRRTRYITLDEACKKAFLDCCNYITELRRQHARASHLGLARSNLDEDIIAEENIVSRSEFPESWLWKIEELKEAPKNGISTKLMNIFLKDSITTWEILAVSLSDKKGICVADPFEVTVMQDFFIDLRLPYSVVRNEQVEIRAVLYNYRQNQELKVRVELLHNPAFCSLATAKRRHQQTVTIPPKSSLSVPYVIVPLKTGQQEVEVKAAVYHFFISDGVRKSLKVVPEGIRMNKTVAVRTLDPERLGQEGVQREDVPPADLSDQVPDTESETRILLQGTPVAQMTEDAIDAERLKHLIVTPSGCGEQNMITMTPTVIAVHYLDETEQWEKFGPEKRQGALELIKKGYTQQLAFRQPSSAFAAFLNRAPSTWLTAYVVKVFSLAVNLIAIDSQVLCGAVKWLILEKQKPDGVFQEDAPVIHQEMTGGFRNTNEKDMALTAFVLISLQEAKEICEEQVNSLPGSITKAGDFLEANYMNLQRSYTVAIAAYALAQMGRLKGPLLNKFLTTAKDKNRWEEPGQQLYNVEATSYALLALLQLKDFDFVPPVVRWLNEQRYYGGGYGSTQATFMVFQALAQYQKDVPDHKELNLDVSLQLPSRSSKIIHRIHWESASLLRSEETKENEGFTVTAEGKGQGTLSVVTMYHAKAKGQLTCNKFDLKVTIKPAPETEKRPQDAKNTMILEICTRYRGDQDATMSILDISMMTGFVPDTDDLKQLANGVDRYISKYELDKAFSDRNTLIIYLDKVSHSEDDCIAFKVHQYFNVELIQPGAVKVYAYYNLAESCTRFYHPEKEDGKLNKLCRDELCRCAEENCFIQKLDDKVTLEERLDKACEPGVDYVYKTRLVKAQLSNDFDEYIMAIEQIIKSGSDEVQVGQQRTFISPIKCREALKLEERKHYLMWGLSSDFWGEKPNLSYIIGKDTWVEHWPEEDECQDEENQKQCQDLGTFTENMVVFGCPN
T1 sequence (P01024 23-667, chain 1 of 2): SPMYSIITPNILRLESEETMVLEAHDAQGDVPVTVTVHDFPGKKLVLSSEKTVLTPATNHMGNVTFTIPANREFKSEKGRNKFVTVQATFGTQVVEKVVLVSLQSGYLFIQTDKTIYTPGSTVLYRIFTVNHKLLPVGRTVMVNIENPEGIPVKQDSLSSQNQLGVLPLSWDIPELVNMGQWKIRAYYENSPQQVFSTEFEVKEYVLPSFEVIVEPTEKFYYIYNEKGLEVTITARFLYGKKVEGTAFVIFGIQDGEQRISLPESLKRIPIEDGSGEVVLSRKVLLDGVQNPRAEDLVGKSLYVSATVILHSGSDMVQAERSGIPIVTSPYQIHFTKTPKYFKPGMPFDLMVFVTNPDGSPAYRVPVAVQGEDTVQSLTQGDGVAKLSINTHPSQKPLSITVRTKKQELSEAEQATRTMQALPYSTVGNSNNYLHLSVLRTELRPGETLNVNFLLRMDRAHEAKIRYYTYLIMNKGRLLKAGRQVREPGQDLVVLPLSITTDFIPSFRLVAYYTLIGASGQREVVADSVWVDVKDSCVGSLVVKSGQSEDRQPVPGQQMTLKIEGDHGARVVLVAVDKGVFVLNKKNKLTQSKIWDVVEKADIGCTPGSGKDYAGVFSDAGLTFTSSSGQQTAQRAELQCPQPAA
T1 sequence (P01024 672-1663, chain 2 of 2): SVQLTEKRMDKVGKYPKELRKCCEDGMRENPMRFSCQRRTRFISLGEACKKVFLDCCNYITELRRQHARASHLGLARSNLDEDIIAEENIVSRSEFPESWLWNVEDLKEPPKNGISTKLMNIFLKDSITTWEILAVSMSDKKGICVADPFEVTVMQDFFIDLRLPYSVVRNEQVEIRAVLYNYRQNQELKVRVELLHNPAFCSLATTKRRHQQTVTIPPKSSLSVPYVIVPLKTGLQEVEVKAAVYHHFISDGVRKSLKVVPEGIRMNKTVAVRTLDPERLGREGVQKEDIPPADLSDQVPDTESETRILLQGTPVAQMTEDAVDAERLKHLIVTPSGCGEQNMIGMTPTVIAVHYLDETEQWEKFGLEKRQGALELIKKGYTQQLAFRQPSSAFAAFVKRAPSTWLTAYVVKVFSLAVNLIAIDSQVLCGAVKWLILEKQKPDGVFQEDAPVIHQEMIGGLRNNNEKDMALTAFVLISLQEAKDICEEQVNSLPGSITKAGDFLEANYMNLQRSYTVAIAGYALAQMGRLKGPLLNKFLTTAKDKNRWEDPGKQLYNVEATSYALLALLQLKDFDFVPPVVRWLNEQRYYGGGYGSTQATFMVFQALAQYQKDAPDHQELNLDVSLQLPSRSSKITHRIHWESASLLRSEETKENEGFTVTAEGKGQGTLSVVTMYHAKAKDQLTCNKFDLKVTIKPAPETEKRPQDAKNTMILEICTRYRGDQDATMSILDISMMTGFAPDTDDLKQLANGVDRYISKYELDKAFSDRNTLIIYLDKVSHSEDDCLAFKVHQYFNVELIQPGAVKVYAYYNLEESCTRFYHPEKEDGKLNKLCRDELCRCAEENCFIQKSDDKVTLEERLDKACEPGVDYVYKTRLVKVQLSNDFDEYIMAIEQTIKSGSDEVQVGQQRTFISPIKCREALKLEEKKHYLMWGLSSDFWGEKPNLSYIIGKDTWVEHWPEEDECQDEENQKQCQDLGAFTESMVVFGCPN

binding result [1]: binds
B1: Hz38G10 dsscFv (VL-linker-VH disulfide-stabilized scFv) (scFv)
scFv: MDIQMTQSPSSLSASVGDRVTITCKASENVDTYVSWYQQKPGKAPKLLIYGASNRYTGVPSRFSGSGSGTDFTFTISSLQPEDIATYHCGQSHSYPLTFGCGTKLEIKGGGGSGGGGSGGGGSQVQLVQSGAEVKKPGASVKVSCKASGYTFTDFYMDWVRQAPGQCLEWMGYIYPHNGGTTYNQQFTGRVTITVDKSASTAYMELSSLRSEDTAVYYCARRGGFDFDYWGQGTLVTVSS
notes: scFv with an engineered disulfide bond between VL and VH; also called Hz38G10 VL-linker-VH dsscFv

Kd [2]: 0.16 nM
Kd [3]: 0.19 nM
Kd [4]: ~0.1 nM
Kd [5]: ~0.1 nM
B2: antibody 38G10 (antibody, V domains shown)
VH: EVQLQQSGPELVKPGDSVKMSCKASGYTFTDFYMDWVKQSHGKSLEWIGYIYPHNGGTTYNQNFTGKATLTVDKSSNTAYMELHSLTSEDSAVYYCARRGGFDFDYWGQGTTLTVSS
VL: NIVMTQSPKSMSLSVGERVTLRCKASENVDTYVSWYQQKPEQSPKLLIYGASNRYTGVPDRFTGSGSATEFTLTISSVQAEDLVGYHCGQSHSYPLTFGAGTKLELK
notes: Mouse hybridoma monoclonal antibody; also called parental 38G10 antibody

Kd [4]: 1.8 nM
Kd [5]: 0.3 nM
B3: antibody Hz38G10 (antibody, human IgG1, kappa, V domains shown)
VH: QVQLVQSGAEVKKPGASVKVSCKASGYTFTDFYMDWVRQAPGQRLEWMGYIYPHNGGTTYNQQFTGRVTITVDKSASTAYMELSSLRSEDTAVYYCARRGGFDFDYWGQGTLVTVSS
VL: DIQMTQSPSSLSASVGDRVTITCKASENVDTYVSWYQQKPGKAPKLLIYGASNRYTGVPSRFSGSGSGTDFTFTISSLQPEDIATYHCGQSHSYPLTFGQGTKLEIKR
notes: also called humanized 38G10; Hz38G10 intact antibody
alternative pathway hemolysis assay, fold against COMP or COMP-PEG [6]: ~10 fold

binding result [1]: binds
B4: variant of antibody Hz38G10 with a N55D mutation in the heavy chain CDR2 (antibody, V domains shown)
VH: B3 VH with N55D
VL: DIQMTQSPSSLSASVGDRVTITCKASENVDTYVSWYQQKPGKAPKLLIYGASNRYTGVPSRFSGSGSGTDFTFTISSLQPEDIATYHCGQSHSYPLTFGQGTKLEIK
notes: Mimics a fully deamidated molecule; also called Hz38G10 N55D variant

binding result [7]: binds
B5: antibody Hz38G10(N55E) (antibody, V domains shown)
VH: B3 VH with N55E
VL: B4 VL

binding result [7]: binds
B6: antibody Hz38G10(G56A) (antibody, human IgG1, kappa, V domains shown)
VH: B3 VH with G56A
VL: B3 VL

binding result [7]: binds
B7: antibody Hz38G10(G56T) (antibody, V domains shown)
VH: B3 VH with G56T
VL: B4 VL

binding result [7]: binds
B8: antibody Hz38G10(N55Q) (antibody, V domains shown)
VH: B3 VH with N55Q
VL: B4 VL

From patent WO2021226442A2 (dated 2021)
